According to the MegaScale stability set (Tsuboyama et al. 2023):

B1: r11_951_TrROS_Hall (parent)
chain: KKKYVIKVYFEDTGKEVEIEAESKEEALEAAKRLAEELGLKIKKVEIYP

Variants of: B1
Experiment: folding stability dG (cDNA display proteolysis); higher = more stable
Conditions: PBS, room temperature

Variant | folding stability dG [kcal/mol]
KKKYVIKVYFEDTGKEVTIEAESKEEALEAAKRLAEELGLKIKKVEIYP | 4.3
KKKYVIKVYFEDTGKEVQIEAESKEEALEAAKRLAEELGLKIKKVEIYP | 4.5
KKKYVIKVYFEDTGKEVNIEAESKEEALEAAKRLAEELGLKIKKVEIYP | 4.16
KKKYVIKVYFEDTGKEVAIEAESKEEALEAAKRLAEELGLKIKKVEIYP | 4.14
KKKYVIKVYFEDTGKEVCIEAESKEEALEAAKRLAEELGLKIKKVEIYP | 4.4
KKKYVIKVYFEDTGKEVVIEAESKEEALEAAKRLAEELGLKIKKVEIYP | 4.35
KKKYVIKVYFEDTGKEVLIEAESKEEALEAAKRLAEELGLKIKKVEIYP | 4.46
KKKYVIKVYFEDTGKEVKIEAESKEEALEAAKRLAEELGLKIKKVEIYP | 4.07
KKKYVIKVYFEDTGKEVYIEAESKEEALEAAKRLAEELGLKIKKVEIYP | 4.12
KKKYVIKVYFEDTGKEVMIEAESKEEALEAAKRLAEELGLKIKKVEIYP | 4.35
KKKYVIKVYFEDTGKEVHIEAESKEEALEAAKRLAEELGLKIKKVEIYP | 4.32
KKKYVIKVYFEDTGKEVWIEAESKEEALEAAKRLAEELGLKIKKVEIYP | 4.3
KKKYVIKVYFEDTGKEVGIEAESKEEALEAAKRLAEELGLKIKKVEIYP | 4.06
KKKYVIKVYFEDTGKEVRIEAESKEEALEAAKRLAEELGLKIKKVEIYP | 4.19
KKKYVIKVYFEDTGKEVFIEAESKEEALEAAKRLAEELGLKIKKVEIYP | 4.21
KKKYVIKVYFEDTGKEVSIEAESKEEALEAAKRLAEELGLKIKKVEIYP | 4.25
KKKYVIKVYFEDTGKEVDIEAESKEEALEAAKRLAEELGLKIKKVEIYP | 4.45
KKKYVIKVYFEDTGKEVPIEAESKEEALEAAKRLAEELGLKIKKVEIYP | 3.84
KKKYVIKVYFEDTGKEVIIEAESKEEALEAAKRLAEELGLKIKKVEIYP | 4.61
KKKYVIKVYFEDTGKEPEIEAESKEEALEAAKRLAEELGLKIKKVEIYP | 3.58
KKKYVIKVYFEDTGKEIEIEAESKEEALEAAKRLAEELGLKIKKVEIYP | 4.4
KKKYVIKVYFEDTGKEKEIEAESKEEALEAAKRLAEELGLKIKKVEIYP | 4.07

Variant | folding stability dG [kcal/mol]
KKKYVIKVYFEDTGKEEEIEAESKEEALEAAKRLAEELGLKIKKVEIYP | 4.29
KKKYVIKVYFEDTGKEWEIEAESKEEALEAAKRLAEELGLKIKKVEIYP | 4.53
KKKYVIKVYFEDTGKEDEIEAESKEEALEAAKRLAEELGLKIKKVEIYP | 3.74
KKKYVIKVYFEDTGKEHEIEAESKEEALEAAKRLAEELGLKIKKVEIYP | 4.4
KKKYVIKVYFEDTGKETEIEAESKEEALEAAKRLAEELGLKIKKVEIYP | 4.29
KKKYVIKVYFEDTGKELEIEAESKEEALEAAKRLAEELGLKIKKVEIYP | 4.42
KKKYVIKVYFEDTGKENEIEAESKEEALEAAKRLAEELGLKIKKVEIYP | 3.71
KKKYVIKVYFEDTGKEMEIEAESKEEALEAAKRLAEELGLKIKKVEIYP | 4.28
KKKYVIKVYFEDTGKEFEIEAESKEEALEAAKRLAEELGLKIKKVEIYP | 4.42
KKKYVIKVYFEDTGKEAEIEAESKEEALEAAKRLAEELGLKIKKVEIYP | 4.23
KKKYVIKVYFEDTGKEYEIEAESKEEALEAAKRLAEELGLKIKKVEIYP | 4.36
KKKYVIKVYFEDTGKECEIEAESKEEALEAAKRLAEELGLKIKKVEIYP | 4.25
KKKYVIKVYFEDTGKEGEIEAESKEEALEAAKRLAEELGLKIKKVEIYP | 4.05
KKKYVIKVYFEDTGKEQEIEAESKEEALEAAKRLAEELGLKIKKVEIYP | 4
KKKYVIKVYFEDTGKEREIEAESKEEALEAAKRLAEELGLKIKKVEIYP | 4.29
KKKYVIKVYFEDTGKESEIEAESKEEALEAAKRLAEELGLKIKKVEIYP | 4.23
KKKYVIKVYFEDTTKEVEIEAESKEEALEAAKRLAEELGLKIKKVEIYP | 4.41
KKKYVIKVYFEDTPKEVEIEAESKEEALEAAKRLAEELGLKIKKVEIYP | 4.26
KKKYVIKVYFEDTFKEVEIEAESKEEALEAAKRLAEELGLKIKKVEIYP | 4.73
KKKYVIKVYFEDTRKEVEIEAESKEEALEAAKRLAEELGLKIKKVEIYP | 4.05
KKKYVIKVYFEDTYKEVEIEAESKEEALEAAKRLAEELGLKIKKVEIYP | 4.5
KKKYVIKVYFEDTSKEVEIEAESKEEALEAAKRLAEELGLKIKKVEIYP | 4.66

Variant | folding stability dG [kcal/mol]
KKKYVIKVYFEDTEKEVEIEAESKEEALEAAKRLAEELGLKIKKVEIYP | 4.3
KKKYVIKVYFEDTAKEVEIEAESKEEALEAAKRLAEELGLKIKKVEIYP | 4.34
KKKYVIKVYFEDTLKEVEIEAESKEEALEAAKRLAEELGLKIKKVEIYP | 4.25
KKKYVIKVYFEDTVKEVEIEAESKEEALEAAKRLAEELGLKIKKVEIYP | 4.62
KKKYVIKVYFEDTHKEVEIEAESKEEALEAAKRLAEELGLKIKKVEIYP | 4.27
KKKYVIKVYFEDTCKEVEIEAESKEEALEAAKRLAEELGLKIKKVEIYP | 4.36
KKKYVIKVYFEDTNKEVEIEAESKEEALEAAKRLAEELGLKIKKVEIYP | 4.43
KKKYVIKVYFEDTQKEVEIEAESKEEALEAAKRLAEELGLKIKKVEIYP | 4.39
KKKYVIKVYFEDTIKEVEIEAESKEEALEAAKRLAEELGLKIKKVEIYP | 4.58
KKKYVIKVYFEDTKKEVEIEAESKEEALEAAKRLAEELGLKIKKVEIYP | 4.37
KKKYVIKVYFEDTMKEVEIEAESKEEALEAAKRLAEELGLKIKKVEIYP | 4.29
KKKYVIKVYFEDTWKEVEIEAESKEEALEAAKRLAEELGLKIKKVEIYP | 4.61
KKKYVIKVYFEDTDKEVEIEAESKEEALEAAKRLAEELGLKIKKVEIYP | 4.37
KKKYVIKVYFEDTGKLVEIEAESKEEALEAAKRLAEELGLKIKKVEIYP | 4.29
KKKYVIKVYFEDTGKKVEIEAESKEEALEAAKRLAEELGLKIKKVEIYP | 4.23
KKKYVIKVYFEDTGKMVEIEAESKEEALEAAKRLAEELGLKIKKVEIYP | 4.28
KKKYVIKVYFEDTGKGVEIEAESKEEALEAAKRLAEELGLKIKKVEIYP | 4.35
KKKYVIKVYFEDTGKAVEIEAESKEEALEAAKRLAEELGLKIKKVEIYP | 4.49
KKKYVIKVYFEDTGKRVEIEAESKEEALEAAKRLAEELGLKIKKVEIYP | 4.22
KKKYVIKVYFEDTGKNVEIEAESKEEALEAAKRLAEELGLKIKKVEIYP | 4.44
KKKYVIKVYFEDTGKWVEIEAESKEEALEAAKRLAEELGLKIKKVEIYP | 4.48
KKKYVIKVYFEDTGKIVEIEAESKEEALEAAKRLAEELGLKIKKVEIYP | 4.55

Variant | folding stability dG [kcal/mol]
KKKYVIKVYFEDTGKVVEIEAESKEEALEAAKRLAEELGLKIKKVEIYP | 4.16
KKKYVIKVYFEDTGKTVEIEAESKEEALEAAKRLAEELGLKIKKVEIYP | 4.45
KKKYVIKVYFEDTGKFVEIEAESKEEALEAAKRLAEELGLKIKKVEIYP | 4.5
KKKYVIKVYFEDTGKQVEIEAESKEEALEAAKRLAEELGLKIKKVEIYP | 4.2
KKKYVIKVYFEDTGKSVEIEAESKEEALEAAKRLAEELGLKIKKVEIYP | 4.38
KKKYVIKVYFEDTGKHVEIEAESKEEALEAAKRLAEELGLKIKKVEIYP | 4.29
KKKYVIKVYFEDTGKYVEIEAESKEEALEAAKRLAEELGLKIKKVEIYP | 4.45
KKKYVIKVYFEDTGKDVEIEAESKEEALEAAKRLAEELGLKIKKVEIYP | 4.62
KKKYVIKVYFEDTGKCVEIEAESKEEALEAAKRLAEELGLKIKKVEIYP | 4.05
KKKYVIKVYFEDTGKPVEIEAESKEEALEAAKRLAEELGLKIKKVEIYP | 4.21
KKKYVIKVYFEDTGLEVEIEAESKEEALEAAKRLAEELGLKIKKVEIYP | 4.28
KKKYVIKVYFEDTGYEVEIEAESKEEALEAAKRLAEELGLKIKKVEIYP | 4.52
KKKYVIKVYFEDTGGEVEIEAESKEEALEAAKRLAEELGLKIKKVEIYP | 4.19
KKKYVIKVYFEDTGCEVEIEAESKEEALEAAKRLAEELGLKIKKVEIYP | 3.19
KKKYVIKVYFEDTGTEVEIEAESKEEALEAAKRLAEELGLKIKKVEIYP | 4.5
KKKYVIKVYFEDTGSEVEIEAESKEEALEAAKRLAEELGLKIKKVEIYP | 4.28
KKKYVIKVYFEDTGNEVEIEAESKEEALEAAKRLAEELGLKIKKVEIYP | 4.63
KKKYVIKVYFEDTGVEVEIEAESKEEALEAAKRLAEELGLKIKKVEIYP | 4.37
KKKYVIKVYFEDTGWEVEIEAESKEEALEAAKRLAEELGLKIKKVEIYP | 4.23
KKKYVIKVYFEDTGQEVEIEAESKEEALEAAKRLAEELGLKIKKVEIYP | 4.27
KKKYVIKVYFEDTGREVEIEAESKEEALEAAKRLAEELGLKIKKVEIYP | 4.19
KKKYVIKVYFEDTGDEVEIEAESKEEALEAAKRLAEELGLKIKKVEIYP | 4.17

Variant | folding stability dG [kcal/mol]
KKKYVIKVYFEDTGIEVEIEAESKEEALEAAKRLAEELGLKIKKVEIYP | 4.22
KKKYVIKVYFEDTGMEVEIEAESKEEALEAAKRLAEELGLKIKKVEIYP | 4.16
KKKYVIKVYFEDTGAEVEIEAESKEEALEAAKRLAEELGLKIKKVEIYP | 4.22
KKKYVIKVYFEDTGFEVEIEAESKEEALEAAKRLAEELGLKIKKVEIYP | 4.38
KKKYVIKVYFEDTGHEVEIEAESKEEALEAAKRLAEELGLKIKKVEIYP | 4.54
KKKYVIKVYFEDTGPEVEIEAESKEEALEAAKRLAEELGLKIKKVEIYP | 4.29
KKKYVIKVYFEDTGEEVEIEAESKEEALEAAKRLAEELGLKIKKVEIYP | 4.35
KKKYVIKVYFEDTGKEVEHEAESKEEALEAAKRLAEELGLKIKKVEIYP | 3.61
KKKYVIKVYFEDTGKEVEMEAESKEEALEAAKRLAEELGLKIKKVEIYP | 4.5
KKKYVIKVYFEDTGKEVENEAESKEEALEAAKRLAEELGLKIKKVEIYP | 2.66
KKKYVIKVYFEDTGKEVEEEAESKEEALEAAKRLAEELGLKIKKVEIYP | 3.36
KKKYVIKVYFEDTGKEVEDEAESKEEALEAAKRLAEELGLKIKKVEIYP | 3.07
KKKYVIKVYFEDTGKEVECEAESKEEALEAAKRLAEELGLKIKKVEIYP | 4.1
KKKYVIKVYFEDTGKEVEKEAESKEEALEAAKRLAEELGLKIKKVEIYP | 3.18
KKKYVIKVYFEDTGKEVELEAESKEEALEAAKRLAEELGLKIKKVEIYP | 4.5
KKKYVIKVYFEDTGKEVEAEAESKEEALEAAKRLAEELGLKIKKVEIYP | 3.98
KKKYVIKVYFEDTGKEVEGEAESKEEALEAAKRLAEELGLKIKKVEIYP | 3.31
KKKYVIKVYFEDTGKEVEFEAESKEEALEAAKRLAEELGLKIKKVEIYP | 4.33
